{"source": "paper PMC4764579", "about": "“Structural insights into the mechanism of activation of the TRPV1 channel by a membrane-bound tarantula toxin” (eLife, 2016)", "target": "rat TRPV1, full-length channel expressed in HEK293 cells (rat) (UniProt O35433)", "sequence (O35433 whole entry)": "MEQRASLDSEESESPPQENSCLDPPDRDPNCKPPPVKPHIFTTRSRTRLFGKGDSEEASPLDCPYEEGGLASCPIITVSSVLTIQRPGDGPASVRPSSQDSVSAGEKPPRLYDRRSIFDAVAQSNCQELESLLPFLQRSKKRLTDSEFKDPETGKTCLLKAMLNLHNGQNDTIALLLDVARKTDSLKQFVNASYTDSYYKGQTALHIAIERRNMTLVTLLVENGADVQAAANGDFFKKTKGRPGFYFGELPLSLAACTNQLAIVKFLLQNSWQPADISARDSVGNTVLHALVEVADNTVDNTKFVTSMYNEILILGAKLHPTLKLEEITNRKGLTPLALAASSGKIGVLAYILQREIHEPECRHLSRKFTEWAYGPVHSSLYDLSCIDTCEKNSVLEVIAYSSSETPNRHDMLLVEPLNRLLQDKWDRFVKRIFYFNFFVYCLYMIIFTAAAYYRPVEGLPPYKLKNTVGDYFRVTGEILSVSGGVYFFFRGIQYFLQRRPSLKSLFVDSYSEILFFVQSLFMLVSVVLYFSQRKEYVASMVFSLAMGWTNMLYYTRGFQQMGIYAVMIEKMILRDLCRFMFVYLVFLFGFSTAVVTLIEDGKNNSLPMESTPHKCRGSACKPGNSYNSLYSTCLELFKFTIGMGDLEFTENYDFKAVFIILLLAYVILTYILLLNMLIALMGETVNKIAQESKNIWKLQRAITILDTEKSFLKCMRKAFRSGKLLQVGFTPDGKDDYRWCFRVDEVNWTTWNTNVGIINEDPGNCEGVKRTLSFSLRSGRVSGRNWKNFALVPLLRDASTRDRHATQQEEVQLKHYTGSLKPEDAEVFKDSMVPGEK", "data": [{"binder": "bivalent K2 (K2K2) (protein) NCAKEGEVCGWGSKCCHGLDCPLAFIPYCEKYRPYVPVTTNCAKEGEVCGWGSKCCHGLDCPLAFIPYCEK", "values": [{"measurement": "fractional dissociation 1 min after toxin removal (current 1 min after removal divided by steady-state current with toxin), whole-cell patch clamp at +120 mV, TRPV1 in HEK cells", "result": 0.96}]}, {"binder": "bivalent K1 (K1K1) (protein) GDCAKEGEVCSWGKKCCDLDNFYCPMEFIPHCKKYKPYVPVTTDCAKEGEVCSWGKKCCDLDNFYCPMEFIPHCKKYK", "values": [{"measurement": "fractional dissociation 1 min after toxin removal (current 1 min after removal divided by steady-state current with toxin), whole-cell patch clamp at +120 mV, TRPV1 in HEK cells", "result": 0.3}]}]}
